Data as given in US11499162B2, “Plants having increased tolerance to herbicides” (BASF SE, priority 2016, dated 2022).
Where a chain is given by its changes, count along the chain named. Names and notes keep the numbering of the source.

B1: Q71NL88AL92AY93L: mutated TriA variant of SEQ ID NO: 2 (protein)
chain: MQTLSIQHGTLVTMDQYRRVLGDSWVHVQDGRIVALGVHAESVPPPADRVIDARGKVVLPGFINAHTHVNNILLRGGPSHGRQLYDWAFNVALPGQKAMRPEDVAVAVRLYCAEAVRSGITTINDNADSAIYPGNIEAAMAVYGEVGVRVVYARMFFDRMDGRIQGYVDALKARSPQVELCSIMEETAVAKDRITALSDQYHGTAGGRISVWPAPAITPAVTVEGMRWAQAFARDRAVMWTLHMAESDHDERLHWMSPAEYMECYGLLDERLQVAHCVYFDRKDVRLLHRHNVKVASQVVSNAYLGSGVAPVPEMVERGMAVGIGTDDGNCNDSVNMIGDMKFMAHIHRAVHRDADVLTPEKILEMATIDGARSLGMDHEIGSIETGKRADLILLDLRHPQTTPHHHLAATIVFQAYGNEVDTVLIDGNVVMENRRLSFLPPERELAFLEEAQSRATAILQRANMVANPAWRSL
modifications: Pseudomonas
B2: L92AY93L: mutated TriA variant of SEQ ID NO: 2 (protein)
chain: B1 chain with N71Q, A88L
modifications: Pseudomonas
B3: L92AF89A: mutated TriA variant of SEQ ID NO: 2 (protein)
chain: B1 chain with N71Q, A88L, F89A, L93Y
modifications: Pseudomonas
B4: Y93L: mutated TriA variant of SEQ ID NO: 2 (protein)
chain: B1 chain with N71Q, A88L, A92L
modifications: Pseudomonas
B5: Q71C: mutated TriA variant of SEQ ID NO: 2 (protein)
chain: B1 chain with N71C, A88L, A92L, L93Y
modifications: Pseudomonas
B6: Q71NL88AL92AY93FF157L: mutated TriA variant of SEQ ID NO: 2 (protein)
chain: B1 chain with L93F, F157L
modifications: Pseudomonas
B7: Q71NL88AL92AD128G: mutated TriA variant of SEQ ID NO: 2 (protein)
chain: B1 chain with L93Y, D128G
modifications: Pseudomonas
B8: Q71G: mutated TriA variant of SEQ ID NO: 2 (protein)
chain: B1 chain with N71G, A88L, A92L, L93Y
modifications: Pseudomonas
B9: Q71NL88AL92AY93LI217A: mutated TriA variant of SEQ ID NO: 2 (protein)
chain: B1 chain with I217A
modifications: Pseudomonas
B10: F89A: mutated TriA variant of SEQ ID NO: 2 (protein)
chain: B1 chain with N71Q, A88L, F89A, A92L, L93Y
modifications: Pseudomonas
B11: Q71NL92AY93FD128A: mutated TriA variant of SEQ ID NO: 2 (protein)
chain: B1 chain with A88L, L93F, D128A
modifications: Pseudomonas
B12: Y93V: mutated TriA variant of SEQ ID NO: 2 (protein)
chain: B1 chain with N71Q, A88L, A92L, L93V
modifications: Pseudomonas
B13: Q71NL88AL92AD128A: mutated TriA variant of SEQ ID NO: 2 (protein)
chain: B1 chain with L93Y, D128A
modifications: Pseudomonas
B14: Y93A: mutated TriA variant of SEQ ID NO: 2 (protein)
chain: B1 chain with N71Q, A88L, A92L, L93A
modifications: Pseudomonas
B15: Q71NL92AM155TF157V: mutated TriA variant of SEQ ID NO: 2 (protein)
chain: B1 chain with A88L, L93Y, M155T, F157V
modifications: Pseudomonas
B16: L92AF89AY93A: mutated TriA variant of SEQ ID NO: 2 (protein)
chain: B1 chain with N71Q, A88L, F89A, L93A
modifications: Pseudomonas
B17: Q71NL92AM155VF157L: mutated TriA variant of SEQ ID NO: 2 (protein)
chain: B1 chain with A88L, L93Y, M155V, F157L
modifications: Pseudomonas
B18: L92AY93A: mutated TriA variant of SEQ ID NO: 2 (protein)
chain: B1 chain with N71Q, A88L, L93A
modifications: Pseudomonas
B19: Q71NL88AL92AY93F: mutated TriA variant of SEQ ID NO: 2 (protein)
chain: B1 chain with L93F
modifications: Pseudomonas
B20: Q71NL92AY93FD128G: mutated TriA variant of SEQ ID NO: 2 (protein)
chain: B1 chain with A88L, L93F, D128G
modifications: Pseudomonas
B21: Q71NL92AM155TF157L: mutated TriA variant of SEQ ID NO: 2 (protein)
chain: B1 chain with A88L, L93Y, M155T, F157L
modifications: Pseudomonas
B22: Q71NL92AD328G: mutated TriA variant of SEQ ID NO: 2 (protein)
chain: B1 chain with A88L, L93Y, D328G
modifications: Pseudomonas
B23: L92AY93F: mutated TriA variant of SEQ ID NO: 2 (protein)
chain: B1 chain with N71Q, A88L, L93F
modifications: Pseudomonas
B24: Q71NL92AY93FD128GQ96T: mutated TriA variant of SEQ ID NO: 2 (protein)
chain: B1 chain with A88L, L93F, Q96T, D128G
modifications: Pseudomonas

Type: biochemical
Conditions: pH 7.2
Method: EXAMPLE 3: Protein Purification. TriA and variants thereof were produced in E. coli BL21(DE3) Gold (Agilent Technologies, Germany). Therefore E. coli was transformed with appropriate pET24d N-HIS tag expression vector and chaperone plasmid pGro7 (chaperones groEL and groES). Bacterial strains were grown at 30° C. in 100 mL LB for 20 h and protein expression induced with 0.1 mM IPTG at 25° C. for 20 hs. Cells were harvested by centrifugation at 3000 rpm at 4° C. for 20 min, resuspended in Bug Buster protein extraction reagent (Novagen, Germany) according to manufactures instructions. Lysates were clarified by centrifugation. Samples of bovine serum albumin ([…]) were loaded onto each gel analyzed by densitometry to provide an internal standard. Protein determinations were verified using Coomassie protein assay dye, according to manufactures instruction (Thermo Scientific; USA). The HIS-tagged enzymes were purified by metal ion affinity chromatography using Ni-IDA 1000 kit (Macherey-Nagel, Germany) following manufactures instructions. Protein purity was accessed by SDS-PAGE using NuPAGE Novex 4-12% Bis-Tris pre-cast gels (Life Technologies; USA) stained with Coomassie Brilliant Blue (Serva, Germany). Protein concentrations were estimated by measuring absorbance at 280 nm using Lambda Bio+(Perkin Elmer, USA). EXAMPLE 4: Enzyme kinetics. Resting cell suspension containing triA gene were incubated with various azines, melamine and atrazine and the culture filtrate was analyzed by UPLC-HR-MS. Substrates were obtained either from Sigma-Aldrich or synthesized internally. Synthetic standards and enzyme reaction products were analysed by UPLC-HR-MS (Thermo/Dionex UPLC UltiMate3000 coupled to a QExactive high resolution mass spectrometer). A Waters Acquity HSS T3 column (2.1 mm; 100 mm; […]) was used with a mobile phase water/acetonitrile (0.1% formic acid) with a flow rate of […]. Enzymes were used solved 25 mM sodium phosphate buffer (pH 7.2) with substrate concentration in the range of 1 nM to 10 nM at 30° C. Over time, the original azine peak disappeared whereas the formed OH-Metabolite (reaction product) increased. The product was identified by determination of the exact formula and by analysis of the accurate MS-MS fragments. Moreover for some of the formed products authentic standards were co-eluted. Degradation in % was calculated against the cells harboring the empty vector as control.

Row | Molecule | Degradation in % of 6-cyclopentyl-N4-(2,3,4,5,6-pentafluorophenyl)-1,3,5-triazine-2,4-diamine | Degradation in % of Melamine
1 | B1 | 99% | 4%
2 | B2 | 99% | 100%
3 | B3 | 100% | 100%
4 | B4 | 82% | 100%
5 | B5 | 0% | 5%
6 | B6 | 91% | 1%
7 | B7 | 31% | 0%
8 | B8 | 0% | 19%
9 | B9 | 99% | 12%
10 | B10 | 26% | 100%
11 | B11 | 98% | 0%
12 | B12 | 98% | 100%
13 | B13 | 4% | 0%
14 | B14 | 66% | 100%
15 | B15 | 99% | 52%
16 | B16 | 100% | 63%
17 | B17 | 100% | 67%
18 | B18 | 56% | 1%
19 | B19 | 92% | 5%
20 | B20 | 74% | 0%
21 | B21 | 98% | 44%
22 | B22 | 6% | 0%
23 | B23 | 100% | 100%
24 | B24 | 99% | 1%
